Measurements reported in patent US20220119490A1 (Genentech, published 2022).

T1: PTPRD G203E K204E variant extracellular domain (human, UniProt P23468 21-1265)
T1 construct: extracellular domain; also called G203E/K204E double mutant; IG2 mutant
T1 sequence (looked up): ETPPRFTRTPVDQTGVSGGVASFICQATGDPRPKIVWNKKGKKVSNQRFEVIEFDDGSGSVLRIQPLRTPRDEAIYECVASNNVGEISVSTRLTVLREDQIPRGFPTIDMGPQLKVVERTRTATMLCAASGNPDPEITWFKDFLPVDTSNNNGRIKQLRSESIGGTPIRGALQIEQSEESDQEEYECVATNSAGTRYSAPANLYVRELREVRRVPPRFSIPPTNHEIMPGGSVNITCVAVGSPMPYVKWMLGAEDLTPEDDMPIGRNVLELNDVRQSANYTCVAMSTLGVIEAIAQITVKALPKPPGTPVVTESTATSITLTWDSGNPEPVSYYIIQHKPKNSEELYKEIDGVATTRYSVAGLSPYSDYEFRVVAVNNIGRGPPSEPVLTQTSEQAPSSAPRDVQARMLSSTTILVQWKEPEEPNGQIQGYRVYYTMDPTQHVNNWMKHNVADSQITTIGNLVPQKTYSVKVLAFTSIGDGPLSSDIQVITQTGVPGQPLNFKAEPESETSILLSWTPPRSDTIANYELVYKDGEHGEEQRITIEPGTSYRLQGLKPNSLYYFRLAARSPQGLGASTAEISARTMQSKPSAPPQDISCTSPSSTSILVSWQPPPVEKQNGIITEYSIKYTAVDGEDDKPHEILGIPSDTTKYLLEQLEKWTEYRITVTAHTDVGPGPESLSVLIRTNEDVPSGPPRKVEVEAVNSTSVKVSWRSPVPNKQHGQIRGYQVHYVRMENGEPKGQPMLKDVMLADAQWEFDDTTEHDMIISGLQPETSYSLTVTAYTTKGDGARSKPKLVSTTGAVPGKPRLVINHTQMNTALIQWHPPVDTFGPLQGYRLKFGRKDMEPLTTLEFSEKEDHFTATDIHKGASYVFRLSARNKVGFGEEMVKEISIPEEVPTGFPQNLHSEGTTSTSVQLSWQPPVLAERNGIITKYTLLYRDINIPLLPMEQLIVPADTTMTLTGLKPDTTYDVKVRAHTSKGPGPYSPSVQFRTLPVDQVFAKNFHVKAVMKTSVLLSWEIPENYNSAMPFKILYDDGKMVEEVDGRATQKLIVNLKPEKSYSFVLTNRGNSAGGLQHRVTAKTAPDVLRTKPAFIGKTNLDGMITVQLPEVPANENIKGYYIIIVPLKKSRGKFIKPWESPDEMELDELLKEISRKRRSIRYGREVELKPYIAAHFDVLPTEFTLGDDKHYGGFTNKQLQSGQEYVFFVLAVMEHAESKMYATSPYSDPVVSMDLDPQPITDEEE

T2: PTPRO expressed on cells (human, UniProt Q16827 30-1216)
T2 construct: whole, on cells
T2 sequence (looked up): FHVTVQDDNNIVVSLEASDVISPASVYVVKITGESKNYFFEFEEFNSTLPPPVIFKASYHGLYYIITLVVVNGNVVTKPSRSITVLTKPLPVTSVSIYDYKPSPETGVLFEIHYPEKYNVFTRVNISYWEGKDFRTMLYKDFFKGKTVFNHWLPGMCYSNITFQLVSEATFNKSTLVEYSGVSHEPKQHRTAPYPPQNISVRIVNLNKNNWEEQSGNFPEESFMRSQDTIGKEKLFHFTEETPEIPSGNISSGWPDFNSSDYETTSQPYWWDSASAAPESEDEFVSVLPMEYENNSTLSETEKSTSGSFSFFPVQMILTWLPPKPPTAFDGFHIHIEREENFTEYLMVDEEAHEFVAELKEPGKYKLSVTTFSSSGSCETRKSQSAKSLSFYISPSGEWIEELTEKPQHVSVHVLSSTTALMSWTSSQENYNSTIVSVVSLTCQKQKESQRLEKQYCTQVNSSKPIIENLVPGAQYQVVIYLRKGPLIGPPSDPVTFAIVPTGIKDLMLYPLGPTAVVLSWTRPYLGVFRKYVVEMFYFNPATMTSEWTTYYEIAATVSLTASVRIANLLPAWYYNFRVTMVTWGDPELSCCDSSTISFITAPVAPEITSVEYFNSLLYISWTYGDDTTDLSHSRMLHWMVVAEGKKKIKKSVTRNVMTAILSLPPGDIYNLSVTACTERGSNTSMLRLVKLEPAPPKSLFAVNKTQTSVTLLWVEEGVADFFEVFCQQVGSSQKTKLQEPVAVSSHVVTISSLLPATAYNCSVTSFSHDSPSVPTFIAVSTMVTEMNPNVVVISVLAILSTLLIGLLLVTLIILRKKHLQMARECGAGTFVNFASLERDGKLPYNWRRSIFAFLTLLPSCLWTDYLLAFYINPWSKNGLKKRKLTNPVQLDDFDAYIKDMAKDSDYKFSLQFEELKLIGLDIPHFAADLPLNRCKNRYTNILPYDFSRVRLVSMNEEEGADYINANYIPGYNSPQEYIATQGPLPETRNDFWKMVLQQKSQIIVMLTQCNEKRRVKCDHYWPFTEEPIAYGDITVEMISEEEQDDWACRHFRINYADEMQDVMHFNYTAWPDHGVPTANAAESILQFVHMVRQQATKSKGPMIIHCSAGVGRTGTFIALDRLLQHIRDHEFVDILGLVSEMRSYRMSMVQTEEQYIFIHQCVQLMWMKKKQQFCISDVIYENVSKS


Experiments:
[1] = target: T1, PTPRD G203E K204E variant extracellular …; assay: extracellular interaction screen: pentameric PTPRD variant ECD on ECD-Fc prey (FIG. 5L)
[2] = target: T3, PTPRG expressed on cells (human, UniProt P23470 20-1445); assay: cell surface interaction assay: query ECD tetramerised with fluorescent streptavidin on transfected cells, immunofluorescence
T3 construct: whole, on cells
T3 sequence (P23470 20-1445): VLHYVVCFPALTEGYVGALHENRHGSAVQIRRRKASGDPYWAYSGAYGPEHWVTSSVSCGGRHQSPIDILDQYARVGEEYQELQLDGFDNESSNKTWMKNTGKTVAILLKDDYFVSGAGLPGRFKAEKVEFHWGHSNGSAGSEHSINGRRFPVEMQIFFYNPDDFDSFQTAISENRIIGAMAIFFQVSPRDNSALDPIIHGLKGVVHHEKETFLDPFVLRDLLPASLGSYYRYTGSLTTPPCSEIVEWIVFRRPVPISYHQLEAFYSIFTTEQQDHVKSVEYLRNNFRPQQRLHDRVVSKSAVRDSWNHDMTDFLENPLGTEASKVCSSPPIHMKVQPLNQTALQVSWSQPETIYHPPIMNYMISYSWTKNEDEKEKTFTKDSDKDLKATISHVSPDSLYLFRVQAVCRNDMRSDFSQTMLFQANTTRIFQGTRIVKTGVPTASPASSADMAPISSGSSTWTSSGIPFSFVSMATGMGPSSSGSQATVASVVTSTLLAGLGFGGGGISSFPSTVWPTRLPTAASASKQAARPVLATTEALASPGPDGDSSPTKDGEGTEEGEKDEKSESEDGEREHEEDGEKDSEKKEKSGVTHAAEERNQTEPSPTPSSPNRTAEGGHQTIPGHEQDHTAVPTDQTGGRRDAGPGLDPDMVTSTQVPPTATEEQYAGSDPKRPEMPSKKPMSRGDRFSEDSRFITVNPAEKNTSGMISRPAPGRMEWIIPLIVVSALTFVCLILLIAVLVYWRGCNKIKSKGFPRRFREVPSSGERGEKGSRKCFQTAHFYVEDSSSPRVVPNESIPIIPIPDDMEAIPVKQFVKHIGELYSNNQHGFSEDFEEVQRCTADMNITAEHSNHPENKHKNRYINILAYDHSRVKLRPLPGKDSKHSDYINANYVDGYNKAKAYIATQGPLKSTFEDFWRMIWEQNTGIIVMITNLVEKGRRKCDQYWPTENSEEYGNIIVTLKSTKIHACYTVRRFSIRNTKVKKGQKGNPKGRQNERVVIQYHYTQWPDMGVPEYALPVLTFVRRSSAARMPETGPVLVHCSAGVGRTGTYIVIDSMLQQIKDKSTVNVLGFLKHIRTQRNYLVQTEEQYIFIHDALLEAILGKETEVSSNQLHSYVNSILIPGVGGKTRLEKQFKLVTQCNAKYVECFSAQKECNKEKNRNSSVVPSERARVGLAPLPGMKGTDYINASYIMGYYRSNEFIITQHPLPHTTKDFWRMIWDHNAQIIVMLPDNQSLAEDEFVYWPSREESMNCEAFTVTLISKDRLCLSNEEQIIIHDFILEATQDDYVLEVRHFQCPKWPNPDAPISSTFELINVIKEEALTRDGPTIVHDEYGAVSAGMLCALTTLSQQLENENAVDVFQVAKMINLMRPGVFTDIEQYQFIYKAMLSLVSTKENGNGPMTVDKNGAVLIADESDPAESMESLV
Excerpt: (§1) FIG. 3H is a schematic showing the design of the cell surface interaction assay.
(§2) Experiments shown are representative of two independent assays. […] Scale bar=50 μm.

[3] = target: T4, PTPRM expressed on cells (human, UniProt P28827 21-1452); assay: as above
T4 construct: whole, on cells
T4 sequence (P28827 21-1452): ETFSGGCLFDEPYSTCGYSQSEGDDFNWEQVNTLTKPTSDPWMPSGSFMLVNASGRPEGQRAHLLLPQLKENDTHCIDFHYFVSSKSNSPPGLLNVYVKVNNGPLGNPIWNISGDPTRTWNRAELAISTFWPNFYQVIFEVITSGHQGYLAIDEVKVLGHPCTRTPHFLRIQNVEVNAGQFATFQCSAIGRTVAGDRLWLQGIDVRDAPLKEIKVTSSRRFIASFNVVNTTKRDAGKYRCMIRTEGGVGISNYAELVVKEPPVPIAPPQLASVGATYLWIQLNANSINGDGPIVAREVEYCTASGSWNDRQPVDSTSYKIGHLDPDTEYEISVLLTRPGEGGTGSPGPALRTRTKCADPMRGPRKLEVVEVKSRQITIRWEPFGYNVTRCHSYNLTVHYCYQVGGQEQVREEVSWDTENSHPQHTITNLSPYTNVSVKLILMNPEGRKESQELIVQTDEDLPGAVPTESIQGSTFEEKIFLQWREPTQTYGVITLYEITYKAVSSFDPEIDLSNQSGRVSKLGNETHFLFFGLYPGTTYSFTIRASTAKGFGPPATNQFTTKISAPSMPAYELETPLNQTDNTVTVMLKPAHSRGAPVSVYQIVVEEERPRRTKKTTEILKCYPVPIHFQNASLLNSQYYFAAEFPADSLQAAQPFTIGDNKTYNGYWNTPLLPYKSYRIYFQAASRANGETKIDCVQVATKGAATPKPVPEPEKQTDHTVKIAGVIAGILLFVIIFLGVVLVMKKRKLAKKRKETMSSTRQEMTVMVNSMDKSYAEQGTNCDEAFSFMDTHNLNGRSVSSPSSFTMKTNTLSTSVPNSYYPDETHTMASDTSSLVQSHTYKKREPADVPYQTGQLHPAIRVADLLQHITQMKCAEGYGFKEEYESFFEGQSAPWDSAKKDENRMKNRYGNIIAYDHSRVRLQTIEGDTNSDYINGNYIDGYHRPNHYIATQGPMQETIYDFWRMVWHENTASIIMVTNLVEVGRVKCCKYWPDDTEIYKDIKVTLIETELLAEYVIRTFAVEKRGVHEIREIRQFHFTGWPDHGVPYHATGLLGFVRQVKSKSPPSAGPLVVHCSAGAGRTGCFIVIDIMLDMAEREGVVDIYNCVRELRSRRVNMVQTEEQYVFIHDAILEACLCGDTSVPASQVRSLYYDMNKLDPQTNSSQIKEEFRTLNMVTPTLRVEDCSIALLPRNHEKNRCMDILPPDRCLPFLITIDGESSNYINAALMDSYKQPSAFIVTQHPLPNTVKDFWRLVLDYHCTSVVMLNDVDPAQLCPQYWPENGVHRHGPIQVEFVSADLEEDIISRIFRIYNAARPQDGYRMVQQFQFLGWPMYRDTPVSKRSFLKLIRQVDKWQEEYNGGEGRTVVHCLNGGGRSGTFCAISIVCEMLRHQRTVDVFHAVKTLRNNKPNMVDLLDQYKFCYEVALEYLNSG
Excerpt: as §1, §2

[4] = target: T2, PTPRO expressed on cells; assay: as above
Excerpt: as §1, §2

binding result [1] | binding result [2] | binding result [3] | binding result [4] | Binder
no binding | no binding | no binding | no binding | LRFN5 extracellular domain (receptor, human, UniProt Q96NI6 18-529, looked up, extracellular domain; Streptavidin tetramer in cell assay; ECD-Fc prey in the variant screen; also called LFRN5) QICPKRCVCQILSPNLATLCAKKGLLFVPPNIDRRTVELRLADNFVTNIKRKDFANMTSLVDLTLSRNTISFITPHAFADLRNLRALHLNSNRLTKITNDMFSGLSNLHHLILNNNQLTLISSTAFDDVFALEELDLSYNNLETIPWDAVEKMVSLHTLSLDHNMIDNIPKGTFSHLHKMTRLDVTSNKLQKLPPDPLFQRAQVLATSGIISPSTFALSFGGNPLHCNCELLWLRRLSREDDLETCASPPLLTGRYFWSIPEEEFLCEPPLITRHTHEMRVLEGQRATLRCKARGDPEPAIHWISPEGKLISNATRSLVYDNGTLDILITTVKDTGAFTCIASNPAGEATQIVDLHIIKLPHLLNSTNHIHEPDPGSSDISTSTKSGSNTSSSNGDTKLSQDKIVVAEATSSTALLKFNFQRNIPGIRMFQIQYNGTYDDTLVYRMIPPTSKTFLVNNLAAGTMYDLCVLAIYDDGITSLTATRVVGCIQFTTEQDYVRCHFMQSQFLGGTM
no binding | – | – | – | LRRC4B extracellular domain (receptor, human, UniProt Q9NT99 36-576, looked up, extracellular domain; ECD-Fc prey; also called NGL-3; netrin-G ligand-3) AGGGGVAVTSAAGGGSPPATSCPVACSCSNQASRVICTRRDLAEVPASIPVNTRYLNLQENGIQVIRTDTFKHLRHLEILQLSKNLVRKIEVGAFNGLPSLNTLELFDNRLTTVPTQAFEYLSKLRELWLRNNPIESIPSYAFNRVPSLRRLDLGELKRLEYISEAAFEGLVNLRYLNLGMCNLKDIPNLTALVRLEELELSGNRLDLIRPGSFQGLTSLRKLWLMHAQVATIERNAFDDLKSLEELNLSHNNLMSLPHDLFTPLHRLERVHLNHNPWHCNCDVLWLSWWLKETVPSNTTCCARCHAPAGLKGRYIGELDQSHFTCYAPVIVEPPTDLNVTEGMAAELKCRTGTSMTSVNWLTPNGTLMTHGSYRVRISVLHDGTLNFTNVTVQDTGQYTCMVTNSAGNTTASATLNVSAVDPVAAGGTGSGGGGPGGSGGVGGGSGGYTYFTTVTVETLETQPGEEALQPRGTEKEPPGPTTDGVWGGGRPGDAAGPASSSTTAPAPRSSRPTEKAFTVPITDVTENALKDLDDVMKTTK
